# Laboratory results from IntAct's records for PubMed 9488481.
# B1: Death-associated protein kinase 3 (Mus musculus), O54784 (parent)
# chain: MSTFRQEDVEDHYEMGEELGSGQFAIVRKCQQKGTGMEYAAKFIKKRRLPSSRRGVSREEIEREVSILREIRHPNIITLHDVFENKTDVVLILELVSGGELFDFLAEKESLTEDEATQFLKQILDGVHYLHSKRIAHFDLKPENIMLLDKHAASPRIKLIDFGIAHRIEAGSEFKNIFGTPEFVAPEIVNYEPLGLEADMWSIGVITYILLSGASPFLGETKQETLTNISAVNYDFDEEYFSSTSELAKDFIRRLLVKDPKRRMTIAQSLEHSWIKVRRREDGARKPERRRLRAARLREYSLKSHSSMPRNTSYASFERFSRVLEDVAAAEQGLRELQRGRRQCRERVCALRAAAEQREARCRDGSAGLGRDLRRLRTELGRTEALRTRAQEEARAALLGAGGLKRRLCRLENRYDALAAQVAAEVQFVRDLVRALEQERLQAECGVR
# partner: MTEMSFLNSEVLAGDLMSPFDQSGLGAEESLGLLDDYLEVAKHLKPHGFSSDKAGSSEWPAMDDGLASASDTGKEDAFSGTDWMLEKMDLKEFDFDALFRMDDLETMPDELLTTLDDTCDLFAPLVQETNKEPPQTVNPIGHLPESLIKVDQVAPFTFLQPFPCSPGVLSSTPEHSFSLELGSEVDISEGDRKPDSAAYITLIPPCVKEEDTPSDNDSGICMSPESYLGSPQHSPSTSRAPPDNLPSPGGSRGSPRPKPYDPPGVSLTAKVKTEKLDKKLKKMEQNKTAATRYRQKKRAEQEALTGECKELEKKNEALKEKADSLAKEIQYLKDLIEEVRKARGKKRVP
# Variants of: B1
# Conditions: with atf4_mouse Atf4, Q06507
row,Variant,effect of a mutation on the interaction
1,V422A;V429A;L436A,disrupting interaction
